B1: DH270.IA4 (antibody, V domains shown)
VH: QVQLVQSGAEVKKPGASVKVSCKASGYTFTDYYIHWVRQAPGQGLEWMGWINPNTGRTNYAQKFQGRVTMTRDTSISTAYMELSRLRSDDTAVYYCARGGWIGLYYDSSGYPNFDYWGQGTLVTVSS
VL: QSALTQPASVSGSPGQSITISCTGTSYDVGSYNLVSWYQQHPGKAPKLMIYEVSKRPSGVSNRFSGSKSGNTASLTISGLQAEDEADYYCCSYAGSSTVIFGGGTKLTVL
B2: DH270.2 (antibody, V domains shown)
VH: QVQLVQSGAEMKKPGASVRVSCKASGYTFTDYYIHWVRQAPGQGPEWMGWINPSTGRTNSPQKFQGRVIMTRDTSISTAYMDLNRLTSDDTAMYYCTTGGWIGLYSDTSGYPNFDYWGQGTLVTVSS
VL: QSALTQPASVSGSPGQSITISCTGTNYDVGSYNLVSWYQQHPGKVPKYIIYEVNKRPSGVSNRFSGSKSGNTASLTISGLQAEDEADYYCCSYAGSSIIFFGGGTKLTVI
B3: DH270.1 (antibody, V domains shown)
VH: QVQLVQSGAEMKKPGASVKVSCKASGYTFTDYYIHWVRQAPGQGLEWMGWINPNTGRTNYAQKFQGRVIMTRDTSISTAYMELSRLTSDDTAVYYCATGGWIGLYYDSSGYPNFDYWGQGTLVTVSS
VL: QSALTQPASVSGSPGQSITISCTGTSYDVGSYNLVSWYQQHPGKAPKYMIYEVNKRPSGVSNRFSGSKSGNTASLTISGLQAEDEADYYCCSYAGSSTVIFGGGTKLTVL
B4: DH270.3 (antibody, V domains shown)
VH: QVQLVQSGAEMKNPGASVKVSCAASGYTFTDFYIHWVRLAPGQGLEWMGWMNPKTGRTNNAQNFQGRVIMTRDTSIGTAYMELRRLTSDDTAVYYCVTGGWISPYYDSSYYPNFDHWGQGTLVTVSS
VL: QSALTQPASVSGSPGQSITISCTGTSYDVGKFDLVSWYQQHPGKAPKYMIYEVNKWPSGVSHRFSGSKSGNTASLTISGLQAEDEADYYCCSFGGSATVVCGGGTKVTVL
B5: DH270.5 (antibody, V domains shown)
VH: QVQLVQSGAEVKNPGASVKVSCAPSGYTFTDFYIHWVRLAPGQGLEWLGWMNPKTGRTNQGQNFQGRVIMTRDTSIGTAYMELRSLTSDDTAVYYCVTGAWISDYYDSSYYPNFDHWGQGTLVTVSS
VL: LPVLTQPASVSGSPGQSITISCTGTIYDVGKFDLVSWYQHHPGKAPKYLIYEVKKWPSGVSHRFSGSKSGNTASLTISGLQVEDEADYYCCSFGGSAAVVCGGGTKVTVL
B6: DH270.6 (antibody, V domains shown)
VH: QVQLVQSGAQMKNPGASVKVSCAPSGYTFTDFYIHWLRQAPGQGLQWMGWMNPQTGRTNTARNFQGRVIMTRDTSIGTAYMELRSLTSDDTAIYYCTTGGWISLYYDSSYYPNFDHWGQGTLLTVSS
VL: TSLLTQPASVSGSPGQSITISCTGTKYDVGSHDLVSWYQQYPGKVPKYMIYEVNKRPSGVSNRFSGSKSGNTASLTISGLRAEDEADYYCCSFGGSATVVCGGGTKVTVL
B7: DH270.4 (antibody, V domains shown)
VH: EVQLVQSGAEMKNPGASVKVSCAASGYGFTDFYIHWVRLAPGHGLQWMGWMNPKTGRTNNAQDFQGRVILTRDTSIGTAYMELRRLTSDDTAVYYCVTGGWISPYYDSSYYPNFDHWGQGTLITVSS
VL: QSALTQPASVSGSPGQSITISCTGTSYDVAKFDLVSWFQQHPGKAPKYMIYEVNKWPSGVSHRFSGSKSGNTASLTISGLQAEDEADYYCCSFGGSATVVCGGGTKVTVL

Tests used:
Man9-V3 glycopeptide [1] = experiment: biolayer interferometry, biotinylated peptide on streptavidin sensors
Man9-V3 glycopeptide [2] = experiment: biolayer interferometry, biotinylated Man9-V3 on streptavidin sensors, antibody in solution; inset curves (100, 50, 25 µg/mL) after subtraction of the palivizumab signal
Man9-V3 glycopeptide [3] = experiment: biolayer interferometry, biotinylated Man9-V3 on streptavidin sensors, antibody in solution, global fit to the bivalent avidity model

| Binder | Kd (Man9-V3 glycopeptide [1]) [nM] | Kd (Man9-V3 glycopeptide [2]) [nM] | koff (Man9-V3 glycopeptide [3]) [s⁻¹] | kon (Man9-V3 glycopeptide [3]) [M⁻¹ s⁻¹] |
| --- | --- | --- | --- | --- |
| B1 | > 10000 | > 10000 |  |  |
| B2 |  |  | 0.0081 | 1710 |
| B3 | 331 |  | 0.00051 | 1540 |
| B4 |  |  | 0.000778 | 4000 |
| B5 |  |  | 0.00091 | 3300 |
| B6 | 188 |  | 0.00037 | 1970 |
| B7 |  |  | 0.00052 | 1500 |
